Experiment [1] has as its system B-Raf mutated cell lines (H29, A375, A2058 and WM115). The experiment is described as follows: Cell proliferative assays in B-Raf mutated cell lines. In kind it is cell-based. As to conditions: four B-Raf mutated cell lines. How it is done: To investigate whether NRG signaling attenuates the anti-proliferative effects of trametinib or vemurafenib, cells were exposed to the drugs in the presence or absence of NRG. In addition, 2C2-YTE was introduced in a separate set of samples. Cell proliferative assays were performed in all four B-Raf mutated cell lines (H29, A375, A2058 and WM115).

The next experiment addresses T1, ErbB3 (HER3) (Homo sapiens (Human), UniProt P21860 20-1342).
T1 construct: They are human tumour lines, so human HER3 is meant; also called HER3 receptor
In words: binding of fluorescent probe to HT29, A375, A2058 and WM115 cells; mean fluorescence intensity, total over non-specific (excess unlabelled probe). The method, then:
The effects of trametinib and vemurafenib on cell-surface expressed ErbB3 were also monitored. HT29, A375, A2058 and WM115 cells were treated with 100 nM trametinib or 1 μM vemurafenib for 24 hours at 37° C. […] Specific binding was determined by calculating the mean fluorescent intensity ratio of total binding (labeled probe alone) divided by the non-specific binding (labeled probe with excess of unlabeled probe). Values should be reported as the binding ratio of drug-treated samples divided by the untreated sample.

These results are taken from patent US20170190788A1, “USES OF ANTI-HER3 ANTIBODIES FOR TREATING CANCER” (BULLDOG PHARMACEUTICALS, INC., priority 2014, published 2017).

Entries after “also recorded” stand apart in the source; their conditions may differ.

B1: NRG: neuregulin, HER3 ligand used to stimulate cells (protein)
chain: SHLVKCAEKEKTFCVNGGECFMVKDLSNPSRYLCKCPNEFTGDRCQNYVMASFYKHLGIEFMEAE
B1: the “effect of NRG on anti-proliferative effects of trametinib or vemurafenib” value in experiment [1] was “can robustly attenuate the effects of BRAF and MEK inhibitors; also recorded: attenuates the anti-proliferative effects of the BRAF and MEK inhibitors”.

B2: 2C2-YTE anti-HER3 antibody (antibody, V domains shown)
VH: EVQLLESGGGLVQPGGSLRLSCAASGFTFSYYYMQWVRQAPGKGLEWVSYIGSSGGVTNYADSVKGRFTISRDNSKNTLYLQMNSLRAEDTAVYYCARVGLGDAFDIWGQGTMVTVSS
VL: QSVLTQPPSASGTPGQRVTISCSGSLSNIGLNYVSWYQQLPGTAPKLLISRNNQRPSGVPDRFSGSKSGTSASLAISGLRSEDEADYYCAAWDDSPPGEAFGGGTKLTVL
notes: In the phosphorylation and proliferation assays it was unlabelled; also called 2C2-YTE mutant antibody; anti-HER3 antibody (2C2-YTE); not shown: human lambda light chain constant region
Consider B2, for which, in the experiment with ErbB3 (HER3), the binding result is “binds”.
